We go through two substances from publication PMC3219723.

In general, Kd refers to the constant that tells how readily two partners part at equilibrium.

For one assay, the target named is ASF/SF2 (Homo sapiens) (UniProt Q07955). Conditions: cited from earlier work.
The target in assay [1] is Cp183 dimer (HBV core protein, free dimer) (Hepatitis B virus) (UniProt P03147). In words: SEC; 5.3 µM Cp183 dimer alone or mixed with 11.2 µM SRPKΔ in disassembly buffer, dialysed overnight against reassembly buffer (0.25 M NaCl, 10 mM DTT, 20 mM Tris-HCl pH 7.4); Superose 6; fractions by SDS-PAGE. A general note: In gel filtration, larger molecules generally elute earlier.
Sequence of UniProt P03147 (P03147 whole entry): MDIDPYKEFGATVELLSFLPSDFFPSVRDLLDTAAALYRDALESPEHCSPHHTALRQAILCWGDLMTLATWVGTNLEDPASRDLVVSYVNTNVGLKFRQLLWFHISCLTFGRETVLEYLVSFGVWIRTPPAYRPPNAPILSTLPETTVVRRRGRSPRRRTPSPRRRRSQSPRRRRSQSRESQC

Sequence of UniProt Q07955 (Q07955 2-248): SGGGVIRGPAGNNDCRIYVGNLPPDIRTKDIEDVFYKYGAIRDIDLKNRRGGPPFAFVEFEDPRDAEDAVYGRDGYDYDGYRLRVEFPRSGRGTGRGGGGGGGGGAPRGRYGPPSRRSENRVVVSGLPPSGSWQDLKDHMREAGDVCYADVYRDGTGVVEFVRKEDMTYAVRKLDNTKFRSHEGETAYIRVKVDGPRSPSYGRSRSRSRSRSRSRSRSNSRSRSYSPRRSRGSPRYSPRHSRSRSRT

Turning to SRPK1 (from UniProt Q96SB4), the Kd with ASF/SF2 (Homo sapiens) was 0.05 µM.

In turn, “SRPK1ΔN1S1 (truncated Serine Arginine protein kinase 1) (from UniProt Q96SB4 1-655) (enzyme)” returned a stoichiometry N (SRPKΔ per Cp183 dimer) in assay [1] of over 1.
